Like-named read-outs stand apart in the source and are kept apart here.

Data set [1] has as its target T1, hRPA (Homo sapiens, UniProt P27694;P15927;P35244 1-616;1-270;1-121). The data set can be described thus: FRET titration.
Data set [2] addresses T2, hRad52 1-212 (Homo sapiens, UniProt P43351 1-212).
T2 sequence: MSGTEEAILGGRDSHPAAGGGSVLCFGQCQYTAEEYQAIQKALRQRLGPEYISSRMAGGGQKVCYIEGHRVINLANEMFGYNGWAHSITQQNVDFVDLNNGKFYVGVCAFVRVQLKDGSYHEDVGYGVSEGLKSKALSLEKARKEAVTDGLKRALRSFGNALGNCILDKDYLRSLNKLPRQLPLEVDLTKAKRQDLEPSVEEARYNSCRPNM
Kind of data set: FRET titration.

Data set [3] has as its target T3, hRad52 (Homo sapiens, UniProt P43351 1-418).
T3 sequence: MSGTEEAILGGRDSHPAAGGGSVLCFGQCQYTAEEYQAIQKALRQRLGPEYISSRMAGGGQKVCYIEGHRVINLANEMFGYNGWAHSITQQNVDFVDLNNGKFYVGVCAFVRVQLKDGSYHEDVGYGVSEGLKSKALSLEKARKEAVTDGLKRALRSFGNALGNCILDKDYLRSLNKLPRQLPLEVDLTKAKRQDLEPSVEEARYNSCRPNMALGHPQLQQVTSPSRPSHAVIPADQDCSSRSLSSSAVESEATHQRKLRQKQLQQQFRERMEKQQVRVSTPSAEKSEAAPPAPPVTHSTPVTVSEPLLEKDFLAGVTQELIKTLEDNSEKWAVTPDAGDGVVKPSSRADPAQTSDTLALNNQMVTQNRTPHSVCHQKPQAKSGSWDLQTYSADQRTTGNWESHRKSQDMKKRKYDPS
The data set can be described thus: FRET titration.

Data set [4] deals with T3, hRad52. Kind of data set: FRET titration. The source holds these as a separate data set.
Data set [5] deals with T2, hRad52 1-212. Kind of data set: FRET titration. The source holds these as a separate data set.
For data set [6], the target named is T3, hRad52. The data set can be described thus: EMSA. A general note: In EMSA bound probe runs differently from free probe, usually more slowly.
The target of data set [7] is T1, hRPA. The data set can be described thus: FRET titration. The source holds these as a separate data set.
Data set [8] has as its target T3, hRad52. Kind of data set: FRET titration. The source holds these as a separate data set.

T1 sequence (P27694 whole entry, chain 1 of 3): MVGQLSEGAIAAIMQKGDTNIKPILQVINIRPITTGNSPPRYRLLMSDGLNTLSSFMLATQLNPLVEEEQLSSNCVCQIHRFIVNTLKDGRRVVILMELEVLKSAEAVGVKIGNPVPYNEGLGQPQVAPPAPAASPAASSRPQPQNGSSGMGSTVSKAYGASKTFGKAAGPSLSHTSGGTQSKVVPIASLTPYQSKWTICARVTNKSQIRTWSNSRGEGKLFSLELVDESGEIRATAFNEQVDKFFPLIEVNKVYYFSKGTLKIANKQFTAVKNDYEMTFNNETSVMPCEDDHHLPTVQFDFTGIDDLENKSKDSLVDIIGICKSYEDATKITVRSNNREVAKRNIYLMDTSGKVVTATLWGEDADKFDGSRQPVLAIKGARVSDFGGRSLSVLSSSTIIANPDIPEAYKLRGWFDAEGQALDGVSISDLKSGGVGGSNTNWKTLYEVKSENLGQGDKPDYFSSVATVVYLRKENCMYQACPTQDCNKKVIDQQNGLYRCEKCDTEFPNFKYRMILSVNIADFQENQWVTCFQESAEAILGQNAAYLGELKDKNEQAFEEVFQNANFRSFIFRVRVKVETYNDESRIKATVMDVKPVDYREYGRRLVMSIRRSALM
T1 sequence (P15927 whole entry, chain 2 of 3): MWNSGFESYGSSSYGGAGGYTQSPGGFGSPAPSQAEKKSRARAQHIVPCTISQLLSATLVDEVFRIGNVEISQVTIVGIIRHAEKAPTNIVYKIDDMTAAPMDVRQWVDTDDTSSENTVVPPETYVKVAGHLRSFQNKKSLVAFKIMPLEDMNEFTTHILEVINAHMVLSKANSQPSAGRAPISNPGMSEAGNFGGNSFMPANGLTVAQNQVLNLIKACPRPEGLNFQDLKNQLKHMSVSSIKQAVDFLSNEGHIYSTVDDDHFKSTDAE
T1 sequence (P35244 whole entry, chain 3 of 3): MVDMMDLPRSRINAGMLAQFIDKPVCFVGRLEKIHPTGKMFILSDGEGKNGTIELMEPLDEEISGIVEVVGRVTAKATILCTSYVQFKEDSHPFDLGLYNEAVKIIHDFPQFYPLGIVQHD

B1: poly(dT)-60 (ssDNA)
DNA: TTTTTTTTTTTTTTTTTTTTTTTTTTTTTTTTTTTTTTTTTTTTTTTTTTTTTTTTTTTT
With B1, the binding result in data set [1], in data set [2] and in data set [3] was “binds” in each case.

On to TTTTTTTTTTTTTTTTTTTTTTTTTTTTTTTTTTTTTTTTTTTTTTTTTT (ssDNA) [poly(dT)-50], for which, in data set [4], the binding result was “binds”.

For the molecule TTTTTTTTTTTTTTTTTTTTTTTTTTTTTT (ssDNA) [poly(dT)-30], the binding result in data set [5], in data set [6] and in data set [7] was “binds” throughout.

On to TTTTTTTTTTTTTTTTTTTTTTTTTTTTTTTTTTTTTTT (ssDNA) [poly(dT)-39], for which, in data set [4], the binding result is listed as “binds”.

For TTTTTTTTTTTTTTTTTTTTTT (ssDNA) [poly(dT)-22], the binding result in data set [8] is reported as “binds”.
